Test [1] addresses T1, His6-EhFormin1 GBD-FH3 domain tandem (a.a. 69-418) (E. histolytica, UniProt C4M622 69-418).
T1 sequence (looked up): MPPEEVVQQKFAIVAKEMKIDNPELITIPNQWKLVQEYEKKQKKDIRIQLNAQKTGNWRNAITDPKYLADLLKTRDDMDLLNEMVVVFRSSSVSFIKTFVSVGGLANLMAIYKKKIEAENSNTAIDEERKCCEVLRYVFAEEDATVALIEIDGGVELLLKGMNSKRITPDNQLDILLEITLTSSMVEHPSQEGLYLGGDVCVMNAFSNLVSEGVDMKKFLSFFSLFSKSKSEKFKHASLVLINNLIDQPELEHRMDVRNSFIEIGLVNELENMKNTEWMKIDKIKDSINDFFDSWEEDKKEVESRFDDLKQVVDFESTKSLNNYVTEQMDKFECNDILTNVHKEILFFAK
Kind of test: SPR.

The target of test [2] is His6-EhFormin1 fusion (GBD-FH3 domain tandem, 40-residue linker, FH2-DAD fragment) (E. histolytica). The test is described as follows: SPR.

Where a chain is given by its changes, count along the chain named. Where only a bound is given, the exact number is not on record here.

We go through two molecules from paper PMC3491106 (Biochemistry, 2012).

B1: EhRho1·GTPγS (Entamoeba histolytica Rho1, wild type, loaded with GTPγS) (natural protein, E. histolytica)
chain: MLAFSDMNTGAGKIENGKKALKIVVVGDGAVGKTCLLLAFSKGEIPTAYVPTVFENFSHVMKYKNEEFILHLWDTAGQEEYDRLRPLSYADSDVVLLCFAVNNRTSFDNISTKWEPEIKHYIDTAKTVLVGLKVDLRKDGSDDVTKQEGDDLCQKLGCVAYIEASSVAKIGLNEVFEKSVDCIFSNKPVPK
Regarding B1, the Kd is approximately 3 µM in test [1] and 3 µM in test [2].

B2: EhRho1 Arg83 to Gln mutant (natural protein)
chain: B1 chain with R83Q
The molecule B2 showed a Kd in test [1] of more than 100 µM.
